Results taken from patent US10190113B2, “Methods and compositions for segregating target nucleic acid from mixed nucleic acid samples” (FLIR DETECTION, INC., priority 2011, dated 2019).
Substitutions are numbered along the chain they refer to. Numbers in names are those of the source.

B1: BsoBI D212V: BsoBI restriction enzyme with mutation D212V (protein, UniProt P70985 2-323, looked up, variant D212V)
Type II restriction enzyme …: NTQKPFENHLKSVDDLKTTYEEYRAGFIAFALEKNKRSTPYIERARALKVAASVAKTPKDLLYLEDIQDALLYASGISDKAKKFLTEDDKKESINNLIENFLEPAGEEFIDELIFRYLLFQGDSLGGTMRNIAGALAQQKLTRAIISALDIANIPYKWLDSRDKKYTNWMDKPEDDYELETFAKGISWTINGKHRTLMYNITVPLVKKNVVICLFNCEPEIYTPQKVHQQPEKYLLLGELKGGIDPAGADEHWKTANTALTRIRNKFSEKGLSPKTIFIGAAIEHSMAEEIWDQLQSGSLTNSANLTKTEQVGSLCRWIINI
B2: BsoBI E252K: BsoBI restriction enzyme with mutation E252K (protein, UniProt P70985 2-323, looked up, variant E252K)
Type II restriction enzyme …: B1 Type II restriction enzyme … with V211D, E251K
B3: BsoBI D246G: BsoBI restriction enzyme with mutation D246G (protein, UniProt P70985 2-323, looked up, variant D246G)
Type II restriction enzyme …: B1 Type II restriction enzyme … with V211D, D245G
B4: EcoRV Q69E: EcoRV restriction enzyme with mutation Q69E (protein, UniProt P04390 2-245, looked up, variant Q69E)
Type II restriction enzyme …: SLRSDLINALYDENQKYDVCGIISAEGKIYPLGSDTKVLSTIFELFSRPIINKIAEKHGYIVEEPKQENHYPDFTLYKPSEPNKKIAIDIKTTYTNKENEKIKFTLGGYTSFIRNNTKNIVYPFDQYIAHWIIGYVYTRVATRKSSLKTYNINELNEIPKPYKGVKVFLQDKWVIAGDLAGSGNTTNIGSIHAHYKDFVEGKGIFDSEDEFLDYWRNYERTSQLRNDKYNNISEYRNWIYRGRK
B5: EcoRV N70D: EcoRV restriction enzyme with mutation N70D (protein, UniProt P04390 2-245, looked up, variant N70D)
Type II restriction enzyme …: B4 Type II restriction enzyme … with E68Q, N69D
B6: Eco57I D78N: Eco57I restriction enzyme with mutation D78N (protein, UniProt P25239 1-998, looked up, variant D78N)
Type II restriction enzyme …: MNKKDQLQRLIDKYKSDIDYYRSARYNETQLRTDFLDQLFLILGWDITNAAGKPTNEREVLVEEGLKARAGENTKKPNYTFRLFSERKFFLEAKKPSVDISTTIEPALQVRRYGFTAKLKISVLSNFEYTAIYDCSNQVKETDSVANSRIKLYHFTELVDKFDEINNLIGRESVYTGHFDNEWSEIENKILRFSVDDLFLKQINDWRLLLANEFLQIKNELPEEKLNDLVQNYINSIVFLRVCEDRDLEEYETLYHFAQDKDFQSLVKKLKSSDKKYNSGLFSLEYIDELLSNANSCIWSIIEQLYFPQSTYSFSVFSSDILGNIYEIFLSEKVRIDELGNVKIQPKEEHIDRDVVTTPTHIVKEIIRNTVVEYCKGKSDIEILNSKFADIACGSGAFIIEAFQFIQDILIDYYIQNDKSKLQQISEHTYKLKFEVKREILCKCIYGIDKDYNATKACTFGLLLKLLEGETTETIGKDTPILPALDTNILFGNSLIDSGDKVKQEDIFSINPFDLTNYQFDVIVGNPPYMATEHMNQLTPKELDIYKRKYKSAYKQFDKYFLFIERSIQILKEYGYLGYILPSRFIKVDAGKKLRKFLSENKYLSKLISFGSHQVFKNKTTYTCLLFLNKENHDNFSFYEVKDFKKWLTREDKYLLSSTYQTSSLDSDTWVLEKKINDILKLMFSKSEQLGNIVGKSNVANGIQTSANKYYIHKEIKSENGFIYFEYDGIEYHIEKELTRPYFETNRSGDDSFYTYKDVEPNSFVVYPYKKVGERIQFIEYDELKRQYPKLFEFLQVVKVHLNDKKRSIKPDPTGPNEWYRYGRSQALENCDVDQKLIVGILSNGYKYSIDNHRTFVSSGGTAGYSIINIPNNVRYSIYYIQAILTSKYLEWFASIYGDIFRGRFVARGTKVQTRMPIPTIDFDDPKQKEIHDTISSKQQYLNKLYSQTQKSADRDKIIFERQFEQEKIQMDYLIKNLFDLGDLDSEIPTVEDLYKNL
B7: Eco57I E92Q: Eco57I restriction enzyme with mutation E92Q (protein, UniProt P25239 1-998, looked up, variant E92Q)
Type II restriction enzyme …: B6 Type II restriction enzyme … with N78D, E92Q
B8: BamHI G56S: BamHI restriction enzyme with mutation G56S (protein, UniProt P23940 1-213, looked up, variant G56S)
Type II restriction enzyme …: MEVEKEFITDEAKELLSKDKLIQQAYNEVKTSICSPIWPATSKTFTINNTEKNCNSVVPIKELCYTLLEDTYNWYREKPLDILKLEKKKGGPIDVYKEFIENSELKRVGMEFETGNISSAHRSMNKLLLGLKHGEIDLAIILMPIKQLAYYLTDRVTNFEELEPYFELTEGQPFIFIGFNAEAYNSNVPLIPKGSDGMSKRSIKKWKDKVENK
B9: BamHI G91S: BamHI restriction enzyme with mutation G91S (protein, UniProt P23940 1-213, looked up, variant G91S)
Type II restriction enzyme …: B8 Type II restriction enzyme … with S56G, G91S

System: sera binding to N6 mA coated ELISA plates
Assay: Competitive ELISA of antisera on N6 mA-BSA coated wells
Parameters: species or system mice
Details: 100 ng of competitor
Method: Competitive ELISA were performed as previously described. Itoh, K., M. Mizugaki, and N. Ishida, Preparation of a monoclonal antibody specific for 1-methyladenosine and its application for the detection of elevated levels of 1-methyladenosine in urines from cancer patients. Jpn J Cancer Res, 1988. 79(10): p. 1130-8. Wells were coated with the N6 mA-BSA conjugate ensuring that binding activity was not directed against the KLH component of the immunogen. Specificity was determined by incubating the antisera with either N6-Methyl-2-deoxyadenosine (specific inhibitor for the desired activity) or 2-Deoxyadenosine 5-monophosphate and adding it to the coated well. When antisera bound to the coated well, no competition was present.

Row | Molecule | inhibition of sera binding to N6 mA coated ELISA plates [%]
1 | CNc1ncnc2c1ncn2[C@H]1C[C@H](O)[C@@H](CO)O1 [N6 mA, N6-Methyl-2-deoxyadenosine] | 50

System: nucleic acid recognition or cleavage site
Assay: not given
Details: mutant restriction enzyme relative to wild type; cited from earlier work

Row | Molecule | % of WT cleavage activity [%]
2 | B1 | <0.1
3 | B2 | <0.1
4 | B3 | <0.1
5 | B4 | <0.1
6 | B5 | 0
7 | B6 | <0.1
8 | B7 | <0.1
9 | B8 | 1
10 | B9 | 1
